From paper PMC12511567, “UBE2J2 sensitizes the ERAD ubiquitination cascade to changes in membrane lipid saturation” (Nature Communications, 2025) come the findings set out here.

Series [1] has as its target ubiquitin-activating enzyme E1 (yeast Uba1) (yeast, UniProt P22515 1-1024). The series can be described thus: cross-linking; UBE2J2 proteoliposomes (10% or 60% SFAs, P/L = 1:32,000) incubated with E1 ± BMOE; with or without pre-incubation with low OG; SDS-PAGE and fluorescence scanning. The following applies: both partners purified.
Series [2] concerns the molecule itself. Briefly: FRET or BRET; donor UBE2J2_(A488) and acceptor UBE2J2_(A594) co-reconstituted in liposomes with 10% or 60% SFAs (P/L = 1:20,000 and 1:5000); 37 °C; 20 mM HEPES/KOH pH 7.4, 150 mM KCl, 5 mM magnesium acetate, 0.1 mM TCEP, 0.2 mg/mL BSA; excitation 480 nm, I614/I516.

Sequence of ubiquitin-activating enzyme E1 (yeast Uba1) (P22515 whole entry): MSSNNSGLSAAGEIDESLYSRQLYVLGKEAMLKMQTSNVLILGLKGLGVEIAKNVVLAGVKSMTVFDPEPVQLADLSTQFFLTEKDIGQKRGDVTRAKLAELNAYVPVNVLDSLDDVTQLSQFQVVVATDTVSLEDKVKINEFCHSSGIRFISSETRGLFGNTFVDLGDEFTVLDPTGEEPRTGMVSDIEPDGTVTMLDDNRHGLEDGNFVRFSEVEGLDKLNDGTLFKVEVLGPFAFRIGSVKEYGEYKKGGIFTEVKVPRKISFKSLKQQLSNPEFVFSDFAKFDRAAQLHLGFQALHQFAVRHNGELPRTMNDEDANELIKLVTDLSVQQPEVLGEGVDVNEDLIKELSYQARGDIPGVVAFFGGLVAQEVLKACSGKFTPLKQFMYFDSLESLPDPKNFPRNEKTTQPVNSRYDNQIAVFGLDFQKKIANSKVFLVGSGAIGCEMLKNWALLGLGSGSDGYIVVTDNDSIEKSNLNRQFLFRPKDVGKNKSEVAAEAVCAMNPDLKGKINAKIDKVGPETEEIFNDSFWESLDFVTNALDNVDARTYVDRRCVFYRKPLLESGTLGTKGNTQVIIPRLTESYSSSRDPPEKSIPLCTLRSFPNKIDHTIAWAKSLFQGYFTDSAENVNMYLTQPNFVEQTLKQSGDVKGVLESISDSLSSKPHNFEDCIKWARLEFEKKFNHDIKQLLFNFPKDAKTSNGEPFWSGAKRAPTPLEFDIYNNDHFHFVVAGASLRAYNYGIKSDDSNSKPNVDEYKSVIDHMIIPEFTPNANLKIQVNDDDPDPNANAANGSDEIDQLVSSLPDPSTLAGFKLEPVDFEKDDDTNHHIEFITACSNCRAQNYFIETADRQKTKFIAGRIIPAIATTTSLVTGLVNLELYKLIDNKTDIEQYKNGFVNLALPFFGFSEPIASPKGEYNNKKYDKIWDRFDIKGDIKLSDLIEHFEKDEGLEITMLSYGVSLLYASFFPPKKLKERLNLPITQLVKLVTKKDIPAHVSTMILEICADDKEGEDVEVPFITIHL

B1: UBE2J2 (full-length, membrane-anchored, fluorescently labeled, reconstituted in liposomes) (enzyme, human, UniProt Q8N2K1 1-259, looked up)
chain: MSSTSSKRAPTTATQRLKQDYLRIKKDPVPYICAEPLPSNILEWHYVVRGPEMTPYEGGYYHGKLIFPREFPFKPPSIYMITPNGRFKCNTRLCLSITDFHPDTWNPAWSVSTILTGLLSFMVEKGPTLGSIETSDFTKRQLAVQSLAFNLKDKVFCELFPEVVEEIKQKQKAQDELSSRPQTLPLPDVVPDGETHLVQNGIQLLNGHAPGAVPNLAGLQQANRHHGLLGGALANLFVIVGFAAFAYTVKYVLRSIAQE
modifications: fluorescent label at the C-terminus by sortase A (fluorophore-conjugated GGC peptide): DL680; Alexa Fluor 488 or Alexa Fluor 594 in the FRET assay
notes: UBE2J2, human, ubiquitin-conjugating enzyme E2 J2 with C-terminal transmembrane segment; The same construct carries different C-terminal dyes in different experiments; also called UBE2J2_(DL680); UBE2J2_(A488)
Consider B1, for which the binding result in series [1] and in series [2] was “binds” in each case.

B2: UBE2J2^F137E (membrane-anchored, reconstituted in liposomes) (enzyme, human, UniProt Q8N2K1 1-259, looked up)
chain: MSSTSSKRAPTTATQRLKQDYLRIKKDPVPYICAEPLPSNILEWHYVVRGPEMTPYEGGYYHGKLIFPREFPFKPPSIYMITPNGRFKCNTRLCLSITDFHPDTWNPAWSVSTILTGLLSFMVEKGPTLGSIETSDETKRQLAVQSLAFNLKDKVFCELFPEVVEEIKQKQKAQDELSSRPQTLPLPDVVPDGETHLVQNGIQLLNGHAPGAVPNLAGLQQANRHHGLLGGALANLFVIVGFAAFAYTVKYVLRSIAQE
modifications: fluorescently labeled (UBE2J2 variants were fluorescently labeled after affinity purification)
notes: UBE2J2, human, with F137E; also called UBE2J2 F137E mutant
In the case of B2, in series [1], the binding result is on record as “binds”.
